# Experimental data as given in patent publication US7109299 (dated 2006).
# Bridge positions count the residues as written; N and C are the ends. Square brackets hold non-standard residues; d marks the D form. Ends that are not written are not given here. Dap = NC[C@H](N)C(=O)O; Ahx = NCCCCCC(=O)O
# T1: native IL-5R α/β complex on cells (TF-1 cells; human eosinophils) (human, UniProt Q01344 21-420; P32927 17-897)
# T1 sequence (looked up) 1: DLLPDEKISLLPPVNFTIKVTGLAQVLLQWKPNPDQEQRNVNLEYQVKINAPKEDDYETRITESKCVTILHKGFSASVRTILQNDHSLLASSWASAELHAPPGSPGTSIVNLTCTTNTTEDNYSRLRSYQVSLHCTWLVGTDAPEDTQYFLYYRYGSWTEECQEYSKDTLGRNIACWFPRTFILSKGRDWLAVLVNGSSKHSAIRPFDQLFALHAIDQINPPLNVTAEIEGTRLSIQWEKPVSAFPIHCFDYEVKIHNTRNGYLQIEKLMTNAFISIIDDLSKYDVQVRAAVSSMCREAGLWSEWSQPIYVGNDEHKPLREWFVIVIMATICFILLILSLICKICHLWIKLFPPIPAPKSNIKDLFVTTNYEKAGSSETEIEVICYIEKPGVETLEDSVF
# T1 sequence (looked up) 2: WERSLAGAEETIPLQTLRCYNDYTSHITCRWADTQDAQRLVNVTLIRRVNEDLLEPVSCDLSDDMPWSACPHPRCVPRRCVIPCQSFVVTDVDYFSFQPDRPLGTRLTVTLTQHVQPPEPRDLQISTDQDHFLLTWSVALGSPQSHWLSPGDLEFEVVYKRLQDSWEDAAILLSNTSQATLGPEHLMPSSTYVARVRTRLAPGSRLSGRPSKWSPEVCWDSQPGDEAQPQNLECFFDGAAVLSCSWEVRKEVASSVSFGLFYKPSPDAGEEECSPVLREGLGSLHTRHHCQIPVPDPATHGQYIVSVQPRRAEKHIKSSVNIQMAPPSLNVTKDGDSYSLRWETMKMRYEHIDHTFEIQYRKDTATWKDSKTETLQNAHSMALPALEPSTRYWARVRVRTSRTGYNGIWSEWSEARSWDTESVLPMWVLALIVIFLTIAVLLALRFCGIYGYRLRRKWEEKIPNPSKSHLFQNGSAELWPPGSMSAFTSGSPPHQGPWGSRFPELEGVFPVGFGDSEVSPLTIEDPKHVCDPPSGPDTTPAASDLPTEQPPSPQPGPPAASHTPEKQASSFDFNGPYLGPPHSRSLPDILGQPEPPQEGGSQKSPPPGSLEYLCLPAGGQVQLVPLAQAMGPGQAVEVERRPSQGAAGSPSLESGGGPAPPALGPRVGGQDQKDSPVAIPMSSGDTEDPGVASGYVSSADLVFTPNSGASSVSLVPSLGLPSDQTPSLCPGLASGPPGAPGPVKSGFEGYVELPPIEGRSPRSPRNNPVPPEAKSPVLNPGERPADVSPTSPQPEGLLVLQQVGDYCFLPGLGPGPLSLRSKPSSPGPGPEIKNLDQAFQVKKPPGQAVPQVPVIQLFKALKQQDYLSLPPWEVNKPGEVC
# T2: IL-5RαECD, extracellular domain (ECD) of the human IL-5 receptor α chain, soluble (human, UniProt Q01344 21-342)
# T2 construct: extracellular domain; Captured through mAb 179 (anti-HPAP tail) in the plate, SPA and bead assays; also called soluble IL-5Rα; IL-5 receptor alpha chain extracellular domain
# T2 sequence (Q01344 whole entry, looked up): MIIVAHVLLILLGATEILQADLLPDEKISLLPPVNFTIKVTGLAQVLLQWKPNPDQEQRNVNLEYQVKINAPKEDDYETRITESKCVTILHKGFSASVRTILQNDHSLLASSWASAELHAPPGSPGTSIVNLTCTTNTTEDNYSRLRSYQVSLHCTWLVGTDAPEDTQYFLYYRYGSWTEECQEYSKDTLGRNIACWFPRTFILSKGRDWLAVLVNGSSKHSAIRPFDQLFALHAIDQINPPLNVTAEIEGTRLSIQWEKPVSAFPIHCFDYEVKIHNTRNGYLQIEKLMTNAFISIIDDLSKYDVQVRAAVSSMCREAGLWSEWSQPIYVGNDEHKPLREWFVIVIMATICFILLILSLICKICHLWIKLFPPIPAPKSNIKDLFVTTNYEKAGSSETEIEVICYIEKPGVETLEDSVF
# Assays:
# [1] = target: T1, native IL-5R α/β complex on cells (TF-1 …); assay: cell-based or functional assay
# [2] = target: T2, IL-5RαECD, extracellular domain (ECD) …; assay: scintillation proximity competition assay, dimer against 20 pM [125I] IL-5 on IL-5Rα coated beads
# Description: (§1) Binding affinities of synthetic peptides for IL-5Rα were measured in a scintillation proximity assay (SPA) using radio-iodinated IL-5. Streptavidin coated SPA beads (Amersham) were suspended in IL-5 binding buffer (phosphate buffered saline, 0.1% bovine serum albumin, 0.2% NaN_3) at 2 mg beads/ml of buffer. Biotinylated mAb 179 was adsorbed onto the beads at a ratio of 2 μg Ab/mg beads by incubating the beads and antibody with agitation for at least 2 h. at 4°. The beads were pelleted at 2500 rpm and resuspended at 2 mg/ml in binding buffer. Soluble IL-5Rα was then adsorbed onto the beads by diluting a solution of soluble receptor harvest 1:500 into the bead suspension and incubating with agitation for 2 hr at 4°. The beads were again pelleted at 2500 rpm and resuspended at 2 mg/ml in binding buffer. Competition binding assays were carried out in 100 μl reactions in white polystyrene microtiter plates. […] IL-5 (Amersham). The plates were incubated at room temperature for 1 hour with agitation, then centrifuged for 5 min at 1500 rpm followed by scintillation counting on a Topcount instrument (Packard). […] IL-5 bound in the absence of any competitor. […] IL-5 bound in the presence of 30 nM IL-5. […] IL-5 binding by 50% (IC$50$). In each instance, the dimer has both intramolecular and intermolecular disulfide linkages as shown generically below: […]
# [3] = target: IL-5RαECD, extracellular domain (ECD) of the human IL-5 receptor α chain, soluble (human, UniProt Q01344 21-342); assay: as above
# Description: as §1
Binder,Microphysiometer pIC50 (block of the TF-1 cell response to IL-5) [1],SPA pIC50 [2],SPA pIC50 [3]
"[Ahx]EGYVCVEWARCPTCR-NH2 (disulfide (positions not given here); also: dimer, intramolecular and intermolecular disulfide linkages, places not given here) [dimer of (Ahx)-EGYVCVEWARCPTCR-(NH2)]",9,–,–
"Ac-EGYVCVEWAACPTCR-NH2 (disulfide (positions not given here); also: dimer, intramolecular and intermolecular disulfides, places not given here) [dimer of (Ac)-EGYVCVEWAACPTCR-(NH2)]",6.9,–,–
"Ac-EGYV[Dap]VEWARCPTCR-NH2 (cysteine pairing not given here; also: homodimer, link between chains only in drawing) [dimer of two chains of residues 36-50 of SEQ ID NO: 9 (structure only in drawing CHEM-US-00014)]",6.5,–,–
"H-TGGGDGYVCVEWARCPTCK-OH (disulfide 15-18; also: homodimer via interchain Cys9-Cys9 disulfide) [AF18748, synthetic dimer of (H)-TGGGDGYVCVEWARCPTCK-(OH)]",9.6,9.1,–
"H-EGYVCVEWARCPTCK-OH (disulfide (positions not given here); also: dimer, intramolecular and intermolecular disulfide linkages, places not given here) [dimer of (H)-EGYVCVEWARCPTCK-(OH)]",9.2,–,8.7
"H-EGYVCVEWARCPTCR-OH (disulfide (positions not given here); also: dimer, intramolecular and intermolecular disulfide linkages, places not given here) [dimer of (H)-EGYVCVEWARCPTCR-(OH)]",9.6,8.4,–
"H-GYVCVEWARCPTCR-OH (disulfide (positions not given here); also: dimer, intramolecular and intermolecular disulfide linkages, places not given here) [dimer of (H)-GYVCVEWARCPTCR-(OH)]",8.4,–,8.2
"H-EGYVCVEWARCPTCR-NH2 (disulfide (positions not given here); also: dimer, intramolecular and intermolecular disulfide linkages, places not given here) [dimer of (H)-EGYVCVEWARCPTCR-(NH2)]",9.1,–,–
"H-EGYVCVEWARCPTCG-NH2 (disulfide (positions not given here); also: dimer, intramolecular and intermolecular disulfide linkages, places not given here) [dimer of (H)-EGYVCVEWARCPTCG-(NH2)]",9.1,–,–
"Ac-EGYVCVEWARCPTCR-NH2 (disulfide (positions not given here); also: dimer, intramolecular and intermolecular disulfide linkages, places not given here) [dimer of (Ac)-EGYVCVEWARCPTCR-(NH2)]",8.4,–,–
"Ac-EGYVCVEWARCPTCK-NH2 (disulfide (positions not given here); also: dimer, intramolecular and intermolecular disulfide linkages, places not given here) [dimer of (Ac)-EGYVCVEWARCPTCK-(NH2)]",8.5,–,–
"H-EGYVCVEFARCPTCR-OH (disulfide (positions not given here); also: dimer, intramolecular and intermolecular disulfide linkages, places not given here) [dimer of (H)-EGYVCVEFARCPTCR-(OH)]",–,6.8,–
"H-GYVCVEFARCPTCG-NH2 (disulfide (positions not given here); also: dimer, intramolecular and intermolecular disulfide linkages, places not given here) [dimer of (H)-GYVCVEFARCPTCG-(NH2)]",–,–,6.1
"H-EGYVCVEFARCPTCG-NH2 (disulfide (positions not given here); also: dimer, intramolecular and intermolecular disulfide linkages, places not given here) [dimer of (H)-EGYVCVEFARCPTCG-(NH2)]",–,–,6.6
